Assay [1] has as its target T1, human SIRPβ1 domain 1 (D1) Fc fusion (human, UniProt O00241 30-148).
T1 construct: Made in HEK293/T cells with a heterologous signal peptide; also called Human SIRPβ1 D1-Fc; Human SIRPβ1-Fc; not shown: C-terminal human IgG1 Fc
As to the kind of experiment: Octet, Fab monovalent.

Assay [2] deals with T2, human SIRPα on cells (human, UniProt P78324 31-504).
T2 construct: Whole entry
As to the kind of experiment: flow cytometry. Background: A flow cytometer gives signals particle by particle.

The target in assay [3] is T3, mouse SIRPβ1 on CHO cells (mouse).
T3 construct: Whole entry
T3 chain: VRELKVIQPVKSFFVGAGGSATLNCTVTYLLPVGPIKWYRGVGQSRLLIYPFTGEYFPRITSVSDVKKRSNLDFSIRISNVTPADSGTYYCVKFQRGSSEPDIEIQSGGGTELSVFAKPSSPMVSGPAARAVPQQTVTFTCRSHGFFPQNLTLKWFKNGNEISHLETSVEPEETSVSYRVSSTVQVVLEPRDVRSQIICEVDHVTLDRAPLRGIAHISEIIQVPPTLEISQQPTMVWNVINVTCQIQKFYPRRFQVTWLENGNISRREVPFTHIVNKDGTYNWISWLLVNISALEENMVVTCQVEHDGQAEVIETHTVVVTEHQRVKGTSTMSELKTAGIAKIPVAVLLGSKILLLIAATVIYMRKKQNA
As to the kind of experiment: flow cytometry.

The target of assay [4] is T4, human SIRPβ1 isoform 1 on cells (human, UniProt O00241 30-398).
T4 construct: On CHO cells (low level), on BWZ/BW5147.G.1.4 cells (reporter cells co-express human DAP12) or on primary human myeloid cells; also called huSIRPβ1; BWZ-huSIRPβ1
T4 sequence (O00241 30-398): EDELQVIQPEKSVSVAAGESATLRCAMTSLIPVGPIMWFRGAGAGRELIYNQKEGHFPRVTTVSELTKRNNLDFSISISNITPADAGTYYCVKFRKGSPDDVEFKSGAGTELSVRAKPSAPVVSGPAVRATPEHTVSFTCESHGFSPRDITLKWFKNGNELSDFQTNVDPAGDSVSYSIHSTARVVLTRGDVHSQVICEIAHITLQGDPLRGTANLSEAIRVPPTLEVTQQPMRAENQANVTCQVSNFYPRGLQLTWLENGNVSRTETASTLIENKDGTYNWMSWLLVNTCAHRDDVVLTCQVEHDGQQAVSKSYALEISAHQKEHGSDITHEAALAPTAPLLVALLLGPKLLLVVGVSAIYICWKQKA
The assay can be described thus: flow cytometry.
Description: (§1) Cells were then washed twice and incubated in 100 ul FACS buffer containing 0.5 μg/ml PE-conjugated secondary antibody for 30 minutes on ice. Cells were washed twice in cold FACS buffer and acquired on a BD FACS Canto. Data analysis and calculation of mean fluorescence intensity (MFI) values or 00 positive cells was performed with FlowJo (TreeStar) software version 10.0.7.
(§2) Given the high sequence similarity between receptors of the SIRPβ family, anti-SIRPβ1 antibodies were also screened for cross-reactivity to human SIRPα.

In assay [5] the target is T2, human SIRPα on cells. The assay can be described thus: flow cytometry. This is another data set of the same source.
Description: as §1, §2
For assay [6], the target named is T3, mouse SIRPβ1 on CHO cells. The assay can be described thus: flow cytometry.
Description: as §1, §2
Assay [7] addresses T5, human SIRPα domain 1 (D1) Fc fusion (human, UniProt P78324 32-149).
T5 construct: also called human SIRPα D1-Fc; Human SIRPα Fc; not shown: C-terminal human IgG1 Fc
The assay can be described thus: Octet, IgG avid. A general note: In BLI a coated tip is dipped into the sample, and binding shifts an interference pattern.

Assay [8] deals with T4, human SIRPβ1 isoform 1 on cells. The assay can be described thus: cell binding titration; target not given.
For assay [9], the target named is T1, human SIRPβ1 domain 1 (D1) Fc fusion. As to the kind of experiment: Octet, Fab monovalent. This is another data set of the same source.
Description: Briefly, Octet® affinity measurements were performed by loading IgGs on-line onto AHQ sensors. Sensors were equilibrated off-line in assay buffer for 30 min and then monitored on-line for 60 seconds for baseline establishment. For avid binding measurement, sensors with loaded IgGs were exposed to 100 nM antigen (human SIRPα or SIRPβ1 Fc fusion) for 3 min, and then transferred to assay buffer for 3 min for off-rate measurement. Additional avid binding was determined by loading biotinylated SIRPβ1 monomer on SA sensors and exposuring to 100 nM IgG in solution. Monovalent binding measurements were obtained by loading human SIRPβ1 Fc fusion antigens to AHQ sensor, followed by exposure to 100 nM anti-SIRPβ1 antibody Fab. Additional monovalent measurements were made by loading biotinylated human SIRPβ1 monomer to SA sensor followed by exposure to 100 nM Fab in solution. Kinetics data were fit using a 1:1 binding model in the data analysis software provided by ForteBio.
For assay [10], the target named is T6, Soluble, human SIRPβ1-Fc isoform 1 (O00241) (human, UniProt O00241 30-371, limits assumed).
T6 construct: Whole entry named; also called human SIRPβ1 isoform 1
T6 sequence (O00241 30-371 limits assumed, one chain of several): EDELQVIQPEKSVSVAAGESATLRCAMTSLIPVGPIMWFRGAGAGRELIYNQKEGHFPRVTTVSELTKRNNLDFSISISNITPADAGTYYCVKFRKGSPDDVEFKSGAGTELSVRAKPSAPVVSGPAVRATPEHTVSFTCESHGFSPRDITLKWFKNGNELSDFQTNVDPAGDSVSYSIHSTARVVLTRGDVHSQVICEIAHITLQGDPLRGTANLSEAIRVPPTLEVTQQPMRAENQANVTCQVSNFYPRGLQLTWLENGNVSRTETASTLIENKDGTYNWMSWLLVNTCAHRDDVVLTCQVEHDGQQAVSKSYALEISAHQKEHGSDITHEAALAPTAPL
The assay can be described thus: ELISA, antigen coated. In general terms: ELISA stands for enzyme-linked immunosorbent assay.
Excerpt: Recombinant antigen based on the sequence of SIRPβ1 isoform 1 was used for selecting anti-SIRPβ1 antibodies from yeast library pools. To ascertain if the selected anti-SIRPβ1 antibodies cross-reacted with other isoforms of human SIRPβ1 or with cynomolgus SIRPβ1, recombinant antigens based on human SIRPβ1 isoform 3 sequence and cynomolgus SIRPβ1 isoform 1 sequence were produced by transient transfection in HEK293 cells. Purified, Fc-tagged recombinant proteins were adsorbed onto 96-well plates at 1 μg/mL overnight at 4° C. Plates were subsequently washed with PBS+0.05% Tween-20 and blocked with 1% BSA+PBS for 2 hours at room temperature. Antibodies diluted in blocking buffer at 1 μg/mL were added to wells, serially diluted, and allowed to bind antigen overnight at 4° C. The following day, the primary antibodies were removed and anti-human kappa light chain antibody conjugated to horseradish peroxidase diluted 1:10,000 in blocking buffer were added to wells and incubated for 1 hour at room temperature. Plates were washed with PBS+0.05% Tween-20 and 100 μL of TMB substrate solution was added to wells to generate a colorimetric signal proportional to amount of anti-SIRPβ1 antibody bound to antigen. Once the reaction reached an appropriate color intensity, 100 μL of Stop solution was added to quench the enzyme.
Eight anti-SIRPβ1 antibodies (four parental antibodies and four corresponding affinity matured antibodies) were selected for analysis.

Where two headings read alike, the source gives them in different places.

As usually defined, the Kd is the constant that tells how readily two partners part at equilibrium. A low value points to a tighter complex. Usually EC50 stands for the concentration giving half of the maximal effect. A high value points to lower potency in that assay.
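For FOB in this document: antibody binding to cells detected with a PE-labelled secondary antibody, given as mean fluorescence intensity relative to background.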

T1 sequence (O00241 30-148 limits assumed): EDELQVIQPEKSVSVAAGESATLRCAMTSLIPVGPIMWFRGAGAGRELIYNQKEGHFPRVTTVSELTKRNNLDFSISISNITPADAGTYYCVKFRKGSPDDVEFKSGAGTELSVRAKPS

B1: SB-15 Fab (Fab, V domains shown)
VH: QLQLQESGPGLVKPSETLSLTCTVSGGSISSNSYYWGWIRQPPGKGLEWIGSIYYSGSTYYNPSLKSRVTISVDTSKNQFSLKLSSVTAADTAVYYCAREVGAPPSYPFDIWGQGTMVTVSS
VL: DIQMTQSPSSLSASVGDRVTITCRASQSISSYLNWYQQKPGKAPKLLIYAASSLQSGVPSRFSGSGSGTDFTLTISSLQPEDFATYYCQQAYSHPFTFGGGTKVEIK
notes: Fab by papain digestion
Regarding B1, binding in [1] was characterised by a dissociation constant (Kd) of 407 nM.

B2: SB-17 Fab (Fab, V domains shown)
VH: QVQLVQSGAEVKKPGASVKVSCKASGYTFTSYGISWVRQAPGQGLEWMGWISAYNGNTNYAQKLQGRVTMTTDTSTSTAYMELRSLRSDDTAVYYCARGPLLYGDYHVRYGMDVWGQGTTVTVSS
VL: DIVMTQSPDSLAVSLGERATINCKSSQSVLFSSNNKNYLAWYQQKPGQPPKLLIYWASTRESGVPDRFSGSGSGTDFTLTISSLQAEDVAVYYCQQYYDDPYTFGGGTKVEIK
notes: Fab by papain digestion
B2 had a Kd in [1] of 246 nM.

B3: SB-11 Fab (Fab, V domains shown)
VH: QVQLVQSGAEVKKPGSSVKVSCKASGGTFSNYAISWVRQAPGQGLEWMGGIIPIFGTANYAQKFQGRVTITADESTSTAYMELSSLRSEDTAVYYCARPVDSSSYSLGYYYGMDVWGKGTTVTVSS
VL: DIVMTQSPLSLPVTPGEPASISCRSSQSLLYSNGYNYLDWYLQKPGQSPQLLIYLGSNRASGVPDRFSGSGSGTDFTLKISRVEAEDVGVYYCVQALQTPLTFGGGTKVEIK
notes: Fab by papain digestion
Consider B3, for which, in assay [1], the Kd was determined as 678 nM.

B4: SB-2-10 (antibody, V domains shown)
VH: EVQLLESGGGLVQPGGSLRLSCAASGFTFGSYGMHWVRQAPGKGLEWVSAISGLAGQTYADSVKGRFTISRDNSKNTLYLQMNSLRAEDTAVYYCARDQTAAAAIWGMDVWGQGTTVTVSS
VL: EIVLTQSPGTLSLSPGERATLSCRASQSVSSSYLAWYQQKPGQAPRLLIYGASSRATGIPDRFSGSGSGTDFTLTISRLEPEDFAVYYCQQSSSHPFTFGGGTKVEIK
notes: IgG
Turning to B4, the binding result in assay [2] is reported as “no binding (tested: 1 ug/ml)”; in [3] it was “no binding (tested: 1 ug/ml)”; in assay [7], “no binding (tested: 100 nM)”. Moreover, the values for the FOB in assay [4], in [5] and in [6] were 4 fold over background, 1 fold over background and 2 fold over background, respectively. It took 0.234 nM to reach a half-maximal effect in assay [8] (EC50).

B5: SB-2 Fab (Fab, V domains shown)
VH: QVQLVESGGGVVQPGRSLRLSCAASGFTFSSYGMNWVRQAPGKGLEWVAVIWYDGSNKYYADSVKGRFTISRDNSKNTLYLQMNSLRAEDTAVYYCARDQTAAAAIWGMDVWGQGTTVTVSS
VL: EIVLTQSPGTLSLSPGERATLSCRASQSVSSSYLAWYQQKPGQAPRLLIYGASSRATGIPDRFSGSGSGTDFTLTISRLEPEDFAVYYCQQSSSHPFTFGGGTKVEIK
notes: Fab by papain digestion
Take B5: the Kd in assay [1] turned out to be 266 nM; in [9] it was 977 nM.

B6: SB-1 Fab (Fab, V domains shown)
VH: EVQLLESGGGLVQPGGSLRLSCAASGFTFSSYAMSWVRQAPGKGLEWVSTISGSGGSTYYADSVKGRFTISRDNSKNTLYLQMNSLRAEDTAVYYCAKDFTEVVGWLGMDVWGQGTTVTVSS
VL: EIVMTQSPGTLSLSPGERATLSCRASQSVSSSYLAWYQQKPGQAPRLLIYGASSRATGIPDRFSGSGSGTDFTLTISRLEPEDFAVYYCQLLGSSPRTFGGGTKVEIK
notes: Fab by papain digestion
Turning to B6, the Kd came to 97.9 nM in assay [1] and 172 nM in assay [9].

B7: SB-6 Fab (Fab, V domains shown)
VH: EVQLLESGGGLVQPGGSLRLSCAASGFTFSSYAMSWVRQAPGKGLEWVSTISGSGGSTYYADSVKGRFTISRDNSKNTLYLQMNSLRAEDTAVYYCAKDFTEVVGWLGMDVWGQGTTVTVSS
VL: EIVLTQSPGTLSLSPGERATLSCRASQSVSSSYLAWYQQKPGQAPRLLIYGASSRATGIPDRFSGSGSGTDFTLTISRLEPEDFAVYYCQQSGHLPITFGGGTKVEIK
notes: Fab by papain digestion
In turn, B7 returned a Kd in [1] of 131 nM.

B8: SB-8 Fab (Fab, V domains shown)
VH: QVQLQESGPGLVKPSETLSLTCAVSGYSISSGYYWGWIRQPPGKGLEWIGSIYHSGSTYYNPSLKSRVTISVDTSKNQFSLKLSSVTAADTAVYYCARGGAMTPAGMDVWGQGTTVTVSS
VL: EIVMTQSPGTLSLSPGERATLSCRASQSVSSSYLAWYQQKPGQAPRLLIYGASNRATGIPDRFSGSGSGTDFTLTISRLEPEDFAVYYCQQVYSSPYTFGGGTKVEIK
notes: Fab by papain digestion
Regarding B8, the values for the Kd in assay [1] and in assay [9] were 126 nM and 151 nM, respectively.

B9: SB-2-11 (antibody, V domains shown)
VH: QVQLVESGGGLVQPGGSLRLSCAASGFTFARYGMHWVRQAPGKGLEWVSAISGLAGPTYADSVKGRFTISRDNSKNTLYLQMNSLRAEDTAVYYCARDQTAAWGIWGMDVWGQGTTVTVSS
VL: EIVLTQSPGTLSLSPGERATLSCRASQSVSSSYLAWYQQKPGQAPRLLIYGASSRATGIPDRFSGSGSGTDFTLTISRLEPEDFAVYYCQQSSSHPFTFGGGTKVEIK
notes: IgG
B9: the binding result in assay [2] is recorded as “no binding (tested: 1 ug/ml)”; in [3] it was “no binding (tested: 1 ug/ml)”; in assay [7], “no binding (tested: 100 nM)”. The FOB was 6 fold over background in assay [4], 0 fold over background in assay [5] and 2 fold over background in assay [6]. The same molecule gave an EC50 in [8] of 0.22 nM.

B10: SB-40-18 (antibody, V domains shown)
VH: QVQLVQSGAEVKKPGASVKVSCKASGYTFTSYYMAWVRQAPGQRLEWMGWINPAVGATIYSQKFQGRVTITRDTSASTAYMELSSLRSEDTAVYYCARDTGEYSYSPHGMDVWGQGTTVTVSS
VL: EIVLTQSPATLSLSPGERATLSCRASQSVSSYLAWYQQKPGQAPRLLIYDSSNRATGIPARFSGSGSGTDFTLTISSLEPEDFAVYYCQQRDEHPPWTFGGGTKVEIK
notes: IgG
Consider B10, for which the figures for the binding result in assay [2], in assay [3] and in assay [7] were “no binding (tested: 1 ug/ml)”, “no binding (tested: 1 ug/ml)” and “no binding (tested: 100 nM)”, respectively. Further, the values for the FOB in [4], in [5] and in assay [6] were 4 fold over background, 1 fold over background and 2 fold over background, respectively. In addition, in assay [8], the EC50 was 0.32 nM.

B11: SB-40 Fab (Fab, V domains shown)
VH: QVQLVQSGAEVKKPGASVKVSCKASGYTFTSYYMSWVRQAPGQGLEWMGIINPSGGSTSYAQKFQGRVTMTRDTSTSTVYMELSSLRSEDTAVYYCARDTGEYSYSPHGMDVWGQGTTVTVSS
VL: EIVLTQSPATLSLSPGERATLSCRASQSVSSYLAWYQQKPGQAPRLLIYDSSNRATGIPARFSGSGSGTDFTLTISSLEPEDFAVYYCQQRDEHPPWTFGGGTKVEIK
notes: Fab by papain digestion
As to B11, the Kd in [1] amounted to 427 nM; in assay [9], 918 nM.

B12: SB-40-21 (antibody, V domains shown)
VH: QVQLVQSGAEVKKPGASVKVSCKASGYTFTSYYMVWVRQAPGQGLEWMGIINPSSGDTNYAQKFQGRVTMTRDTSISTAYMELSRLRSDDTAVYYCARDTGEYSYSPHGMDVWGQGTTVTVSS
VL: EIVLTQSPATLSLSPGERATLSCRASQSVSSYLAWYQQKPGQAPRLLIYDSSNRATGIPARFSGSGSGTDFTLTISSLEPEDFAVYYCQQRDEHPPWTFGGGTKVEIK
notes: IgG
Take B12: the figures for the binding result in assay [2], in [3] and in assay [7] were “no binding (tested: 1 ug/ml)”, “no binding (tested: 1 ug/ml)” and “no binding (tested: 100 nM)”, respectively. In addition, the FOB in assay [4] was 5 fold over background; in assay [5], 1 fold over background; in assay [6], 2 fold over background. In addition, the EC50 worked out at 0.025 nM in assay [10] and 0.715 nM in [8].

B13: SB-49 Fab (Fab, V domains shown)
VH: QLQLQESGPGLVKPSETLSLTCTVSGGSISSSDYYWGWIRQPPGKGLEWIGSIYYSGSTYYNPSLKSRVTISVDTSKNQFSLKLSSVTAADTAVYYCARGPTGYKDKWRYYYGMDVWGQGTTVTVSS
VL: DIQMTQSPSSLSASVGDRVTITCQASQDITNYLNWYQQKPGKAPKLLIYDASNLETGVPSRFSGSGSGTDFTFTISSLQPEDIATYYCQQYFHPPLTFGGGTKVEIK
notes: Fab by papain digestion
B13 came in with a Kd in assay [1] of 156 nM.
